# Results taken from the nanobody polyreactivity screen of Harvey et al. (2022).
# Experiment: yeast display, Sf9 membrane polyspecificity reagent, FACS + sequencing; frameworks hold sequencing errors
# How it was run: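 Galactose induction of a Saccharomyces cerevisiae BJ5465 synthetic nanobody display library ran 36–48 hours. The cells were then stained for 1 hour at 4 °C with 10% biotinylated, detergent-solubilized Sf9 membrane reagent, pulled down on streptavidin microbeads and FACS-sorted into low and high (top ~1%) gates on expression and reagent-binding fluorescence. Labels for polyreactivity follow the gate of origin.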
row,Sequence,polyreactivity (PSR sort gate)
1,QVQLVESGGGLVQAGGSLRLSCAASGSTFVVNAMGWYRQAPGKERELVAAISWSGASTYYADSVKGRFTISRDNAKNTVYLQMKSLIQEDTAVYYCAADYSHYFYYYPSFVKFDYWGQGTQVTVSS,high polyreactivity
2,QVQLVESGGGLVQAGGSLRLSCAASGSTFVVNAMGWYRQAPGKERELVAAITQSGGSTFYADSVKGRFTISRDNAKNTVYLQMNSLKPEDTAVYYRGQGTQVTVSS,low polyreactivity
3,QVQLVESGGGLVQAGGSLRLSCAASGSTFVVYAMGWYRQAPGKERELVAAISSSGGSTYYADSVKGRFTISRDNAKNTVYLQMNSLKPEDTAVYYCAAGSRFVSSRLYYWGQGTQVTVSS,high polyreactivity
4,QVQLVESGGGLVQAGGSLRLSCAASGSTFVVYAMGWYRQAPGKERELVAAITGSGGSTYYADSVKGRFTISRDNAKNTVYLQMNSLKPEDTAVYYCAADLYFYVISWGYGFYYWGQGTQVTVSS,low polyreactivity
5,QVQLVESGGGLVQAGGSLRLSCAASGSTFVVYDMGWDRQAPGKERELVAAITWSGGSTYYADSVKGRFTISRDNAKNTVYLQINSLKPEDTAVYYCNKVTWHQGHDYLGQGTQVTVSS,low polyreactivity
6,QVQLVESGGGLVQAGGSLRLSCAASGSTFVWYAMGWYRQAPGKEREFVATISWSDGSTYYADSVKGRFTISRDNAKNTVYLQKNSLKPEDTAVYYCATDVDRFFTYKYDYWGQGTQVTVSS,low polyreactivity
7,QVQLVESGGGLVQAGGSLRLSCAASGSTFVWYAMGWYRQAPGKESELVAVIDWSGGSTSYADSVKGRFTISRDNAKNTVYLQMNSLKPEDTAVYYCAAQLGVISRGNYWGQGTQVTVSS,low polyreactivity
8,QVQLVESGGGLVQAGGSLRLSCAASGSTFVWYAMGWYRQEPGKERELVAAINFGGTTYYADSVNGRFTISRDNAKNTVYLQMNSLKTEDTAVYYCATEYDYGSWYPDGWGIFDYWGQGTQVTVSS,low polyreactivity
9,QVQLVESGGGLVQAGGSLRLSCAASGSTFVWYGMGWYRQQPGNQREFVAAIYTSGGRTYYADSVKGRFTISRDNAKITVYLQMNSLKPEDTALYYCDTRPYFTYRWYDYWGQGTQVTVSS,high polyreactivity
10,QVQLVESGGGLVQAGGSLRLSCAASGSTFVWYVMGWYRQAPGNERELVAAISRSGGTTFYADSVKGRFTISRANAKNTVYLQMNSLKPEDTAVYYCAAEDVAYRPGYDYWGQGTQVTVSS,high polyreactivity
11,QVQLVESGGGLVQAGGSLRLSCAASGSTFVYMGWYRQAPGKEREFVAAITWSGGSTYYADSVKGRFTISRDNAKNTVYLQMNSLKPEDTAVNYCNAVSVIPGWARYYSWGQGTQVSVSS,low polyreactivity
12,QVQLVESGGGLVQAGGSLRLSCAASGSTFVYMGWYRQAPGKEREFVAAITWSGGSTYYADSVKGRFTISRDNAKNTVYLQMNSLKPEDTAVYYCNAVSDIPGWARYYYWGQGTQVTVSS,low polyreactivity
13,QVQLVESGGGLVQAGGSLRLSCAASGSTFVYNAMGWYRQAPGKERELVAAISSGGSTYYADSVKGRFTISRDNAKNTVYLQMNSLKPEDTAVYYCNARGSWRRDKYGTYYRYDYWGQGTQVTVSS,high polyreactivity
14,QVQLVESGGGLVQAGGSLRLSCAASGSTFVYNAMGWYRQAPGKERELVAAISSRGGGTYYADSVKGRFTISRDNAKNSVYLQMYSLKPEDTAVYYCNTLPYTHGSNDYWGQGTQVTVSS,high polyreactivity
15,QVQLVESGGGLVQAGGSLRLSCAASGSTFVYNAMGWYRQAPGKERELVAAITRRGGGTYYADSVKGRFTISRDNAKNTVYLQMNSLKPEDTAVYYCAADSRGWSLDGDYWGQGTQVTVSS,low polyreactivity
16,QVQLVESGGGLVQAGGSLRLSCAASGSTFVYNAMGWYRQAPGKERELVAGIRSSGDRTYYADSVKGRFTISRDNGKNTVYLQMNSLKPEDTAVYYCAAYLGRDPWFSRQGYGYWGQGTQVTVSS,high polyreactivity
17,QVQLVESGGGLVQAGGSLRLSCAASGSTFVYNDMGWYRQAPGKEGELVAGITTSGGSTYYADSVKGRFTISRDNAKNTVYLQINSLKPEDTAVYYCAARAFSAWLEMDYWGQGTQVTVSS,low polyreactivity
